The values below come from patent US20130130379A1 (published 2013).

Test [1] has as its target parathyroid hormone receptor (PTHR1). As to the kind of experiment: Biacore (SPR); PTHR + CaCl2; the table names no quantity; upper end of the range.
For test [2] the target is unchanged. As to the kind of experiment: Biacore (SPR); PTHR + CaCl2; the table names no quantity; lower end of the range.
Test [3] shares this target. The experiment in a line: Biacore (SPR); PTHR - CaCl2; the table names no quantity; lower end of the range. Background: SPR reads the build-up and loss of mass on a sensor chip optically.
Test [4] shares this target. The experiment in a line: Biacore (SPR); PTHR - CaCl2; the table names no quantity; upper end of the range.
Test [5] addresses T1, Human CXCR4 (human, UniProt P61073-2 2-356).
T1 construct: also called hCXCR4
As to the kind of experiment: membrane binding experiments, displacement of 125I-CXCL12. On the technique in general: Loss of bound radioactivity is the signal in a displacement assay; it reports binding, not function.

The target of test [6] is T1, Human CXCR4. The experiment in a line: displacement of [125I]-CXCL12, membranes from HEK293T cells transiently expressing CXCR4; n=4.
The target of test [7] is Cannabinoid Receptor 1 (CB1R). The experiment in a line: Biacore (SPR); the table names no quantity, heading 'Binding of clones against CB1R'.
Test [8] deals with T2, Human CXCR7 (human, UniProt P25106 1-362).
T2 construct: also called hCXCR7
As to the kind of experiment: phage ELISA and FACS. For orientation: An ELISA detects its analyte on a solid surface through an enzyme-linked reagent.

Test [9] addresses parathyroid hormone receptor (PTHR1). The experiment in a line: Biacore (SPR); PTHR - CaCl2; the table names no quantity.
For test [10] the target is unchanged. As to the kind of experiment: Biacore (SPR); PTHR + CaCl2; the table names no quantity.
Test [11] shares this target. The experiment in a line: Biacore (SPR); PTHR Fos12; the table names no quantity.

As usually defined, the Kd is the constant that tells how readily two partners part at equilibrium. In general, Ki refers to a dissociation constant, usually derived from enzyme kinetics or from competition with a known ligand.

Sequence of parathyroid hormone receptor (PTHR1) (Q03431 27-593): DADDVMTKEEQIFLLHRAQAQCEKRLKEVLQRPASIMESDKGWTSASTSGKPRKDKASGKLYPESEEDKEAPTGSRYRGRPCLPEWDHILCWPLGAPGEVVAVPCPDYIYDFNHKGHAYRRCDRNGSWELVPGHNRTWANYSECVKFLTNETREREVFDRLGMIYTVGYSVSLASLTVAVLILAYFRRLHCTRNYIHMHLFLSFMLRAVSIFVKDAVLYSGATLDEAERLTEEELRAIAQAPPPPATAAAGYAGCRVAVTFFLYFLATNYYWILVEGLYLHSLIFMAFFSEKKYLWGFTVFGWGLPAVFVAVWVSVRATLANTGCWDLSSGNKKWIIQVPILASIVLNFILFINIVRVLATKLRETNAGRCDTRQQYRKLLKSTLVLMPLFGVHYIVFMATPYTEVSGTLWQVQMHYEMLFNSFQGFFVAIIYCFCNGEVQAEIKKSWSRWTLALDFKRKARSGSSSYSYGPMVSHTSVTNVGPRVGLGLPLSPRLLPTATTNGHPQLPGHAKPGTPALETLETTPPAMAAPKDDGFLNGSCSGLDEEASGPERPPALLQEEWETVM
Sequence of Cannabinoid Receptor 1 (CB1R) (P47746 whole entry): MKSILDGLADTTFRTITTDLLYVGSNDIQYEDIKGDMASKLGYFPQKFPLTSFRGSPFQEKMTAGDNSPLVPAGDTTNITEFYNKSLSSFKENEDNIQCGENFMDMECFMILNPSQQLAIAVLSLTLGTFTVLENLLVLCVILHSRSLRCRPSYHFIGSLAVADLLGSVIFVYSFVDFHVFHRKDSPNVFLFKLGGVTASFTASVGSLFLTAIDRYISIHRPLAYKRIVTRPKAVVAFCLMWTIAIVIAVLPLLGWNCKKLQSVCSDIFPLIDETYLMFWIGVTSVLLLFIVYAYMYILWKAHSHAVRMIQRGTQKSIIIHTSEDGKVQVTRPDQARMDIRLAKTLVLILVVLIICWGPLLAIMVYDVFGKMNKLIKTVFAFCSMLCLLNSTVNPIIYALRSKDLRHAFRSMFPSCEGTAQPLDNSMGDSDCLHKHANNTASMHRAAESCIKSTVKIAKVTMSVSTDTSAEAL
T2 sequence (P25106 whole entry): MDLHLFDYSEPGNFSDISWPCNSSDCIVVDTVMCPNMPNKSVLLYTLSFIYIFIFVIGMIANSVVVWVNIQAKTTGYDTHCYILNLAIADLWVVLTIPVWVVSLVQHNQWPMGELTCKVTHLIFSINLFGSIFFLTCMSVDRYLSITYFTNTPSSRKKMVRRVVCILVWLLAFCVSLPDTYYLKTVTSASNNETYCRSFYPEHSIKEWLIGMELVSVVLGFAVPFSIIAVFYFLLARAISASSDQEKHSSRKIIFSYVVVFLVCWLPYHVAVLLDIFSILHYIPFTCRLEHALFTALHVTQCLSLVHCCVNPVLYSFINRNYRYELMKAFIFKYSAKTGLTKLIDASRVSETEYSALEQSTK
T1 sequence (P61073 other isoform, or with tags, fused parts or gaps): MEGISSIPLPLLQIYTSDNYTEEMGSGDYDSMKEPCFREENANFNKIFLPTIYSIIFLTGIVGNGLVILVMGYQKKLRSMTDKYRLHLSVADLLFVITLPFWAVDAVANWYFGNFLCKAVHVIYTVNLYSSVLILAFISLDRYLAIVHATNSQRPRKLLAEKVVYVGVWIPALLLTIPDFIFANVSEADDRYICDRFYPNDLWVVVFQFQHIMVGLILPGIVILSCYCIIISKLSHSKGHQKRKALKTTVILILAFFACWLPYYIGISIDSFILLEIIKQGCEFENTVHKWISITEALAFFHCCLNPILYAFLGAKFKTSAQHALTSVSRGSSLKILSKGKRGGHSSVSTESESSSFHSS

As to “PTH (1-34) (ligand) (from UniProt P01270 32-65) (peptide)”, the Kd was in the range of 0.2 to 16 nM in [1], 0.2 to 16 nM in [2], 4 to 23 nM in test [3] and 4 to 23 nM in [4].

In [5], mAb 12G5 (antibody) had a displacement of radiolabeled 125I-CXCL12 of 50%.

B1: 238D4-20GS-238D4 (VHH)
chain: EVQLMESGGGLVQAGGSLRLSCAASGRTFNNYAMGWFRRAPGKEREFVAAITRSGVRSGVSAIYGDSVKDRFTISRDNAKNTLYLQMNSLKPEDTAVYTCAASAIGSGALRRFEYDYSGQGTQVTVSSGGGGSGGGGSGGGGSGGGGSEVQLMESGGGLVQAGGSLRLSCAASGRTFNNYAMGWFRRAPGKEREFVAAITRSGVRSGVSAIYGDSVKDRFTISRDNAKNTLYLQMNSLKPEDTAVYTCAASAIGSGALRRFEYDYSGQGTQVTVSS
notes: also called L13
Regarding B1, the Ki in test [6] is 1 nM.

B2: LGPMP6_H4 (VHH)
VHH: EVQLVESGGGLVQAGGSLRLACAASGSIFSFNAMGWYRQAPGKQRELLAVITRDGITKYADSVKGRFTISRDNAKNTMYLQMNSLKPEDTAVYYCHTGLPTGRGSHSDYWGQGTQVTVSS
B2 displayed a Kd in test [7] of 36 nM.

B3: LGPMP6_B7 (VHH)
VHH: EVQLVESGGGLVQAGGSLRLSCAASGRTLRNYDMGWFRQAPGKEREFVATIRWSTSETYYADSVKGRFTISSDNAKNTVDLQMNSLTPGDTGVYYCAARSVYSYDYNYWGQGTQVTVSS
Molecule B3 had a Kd in [7] of 12 nM.

B4: LGPMP5_G11 (VHH)
VHH: EVQLVKSGGGLVQAGGSLRLSCAASGRTLSNYDMGWFRQAPGKEREFVATIRWSTGETYYTDSVKGRFTISKDNTKNTVDLQMNSLTPEDTAVYYCASRSVYSYEYNYWGQGTQVTVSS
B4: in test [7], the Kd was 12 nM.

B5: 08A10 (VHH)
VHH: EVQLVESGGGLVQAGGSLRLSCAASGSIFSIAAMGWYRQATGKQRELVATITDGGTTTYADSVKGRVTISRDRSANTVYLAMNNLKPDDTAVYYCYAYLRYTSRVPGDNYWGQGTQVTVSS
notes: Group 2 anti-CXCR7 Nanobody; also called Nanobody 08A10
In the case of B5, the binding result in test [8] is given as “binds”.

B6: PMPLG26-A6 (VHH)
VHH: EVQLVESGGGLVQAGGSLRLSCAASRSRSSFDDMGWYRQAPGKQREFVGGITLGGSTIYADSVKGRFTISMDSARNTGYLQMNSLKPEDTAVYYCNAALDGYSGSSWGQGTQVTVSS
In test [9], B6 returned a Kd of 17 nM.

B7: 01C10 (VHH)
VHH: EVQLVESGGGLVQTGASLRLSCAASGRTFSNYAMGWFRQAPGKERERVAAITPRAFTTYYADSVKGRFTISRDNAKNTAYLQMVSLKPEDTAVYYCAAQLVGSGSNLGRQESYAYWGQGTQVTVSS
notes: Group 1 anti-CXCR7 Nanobody; also called Nanobody 01C10
With B7, the binding result in test [8] is recorded as “binds”.

B8: PMPLG22-A3 (VHH)
VHH: EVQLVESGGGLVQAGGSLRLSCAASGNIFANNIMGWYRQPPGKEREFVAHVSHDGDSMYAVSVKGRFAISRKDATNLYLQMNSLKPEDTAIYFCRLLNIPTQGRMEGFWGQGTQVTVSS
Consider B8, for which the dissociation constant Kd came to 9 nM in test [10] and 17 nM in test [9].

B9: PMPLG23-A3 (VHH)
VHH: EVQLVESGGGLVQAGGSLRLSCAASGLTFSNYAMGWFRQAPGKEREWVASINWSGGSTYYEDSVEGRFTISRDNAKNTVNLQMNSLKPEDTAVYYCAAKRGHYSREYDYWGQGTQVTVSS
For the molecule B9, the Kd in test [9] turned out to be 22 nM.

B10: PMPLG26-F2 (VHH)
VHH: EVQLVESGGGLVQAGGSLRLSCVASGFSFDDYAIGWFRQAPGQDREPLACITSGGTRNYNPSVMARFRIDRDNSVKTVYLQINTLKPEDTAVYYCSTELDRQGGSAHECREYDTWGQGTQVTVSS
In the case of B10, the equilibrium dissociation constant (Kd) stood at 70 nM in test [10] and 360 nM in test [11].

B11: 08A05 (VHH)
VHH: EVQLVESGGGLVQAGDSLRLSCAASGLTFSNYDMGWFRQAPGKEREFVGASWWSGGAPYYSDSVKGRFTISRDNAKNTVYLQANSLRPEDTAVYYCAAKRLRSFASGGSYDYWGQGTQVTVSS
notes: Group 2 anti-CXCR7 Nanobody; also called Nanobody 08A05
As for B11, in [8], the binding result is recorded as “binds”.
